Laboratory results from publication PMC6449355, “A TetR-family transcription factor regulates fatty acid metabolism in the archaeal model organism Sulfolobus acidocaldarius” (Nature Communications, 2019).

Assays:
FadRSa [1] = target: T1, FadRSa (Sulfolobus acidocaldarius, UniProt Q4J9S1, M101A); assay: EMSA, ligand response of mutant (fraction of bound DNA); type: binding; details: pH 8.0, 37 °C; allosteric inducer
T1 construct: gene Saci_1107; full-length, recombinant in E. coli Rosetta (DE3), His-tagged (N-terminal from pET45b or C-terminal from pET24a; mutants C-terminal), tag kept; homodimer, 44 kDa

FadRSa [2] = target: T2, FadRSa (Sulfolobus acidocaldarius, UniProt Q4J9S1); assay: EMSA, release of FadRSa from operator DNA; type: binding; details: 154-bp Saci_1106 operator probe, pH 8.0, 37 °C; allosteric inducer
T2 construct: gene Saci_1107; full-length, recombinant in E. coli Rosetta (DE3), His-tagged (N-terminal from pET45b or C-terminal from pET24a; mutants C-terminal), tag kept; homodimer, 44 kDa

[3] = target: T3, FadRSa (Sulfolobus acidocaldarius) (UniProt Q4J9S1); assay: EMSA; details: EMSA/DNase I: 20 mM Tris-HCl pH 8.0, 1 mM MgCl2, 0.1 mM DTT, 12.5% glycerol, 50 mM NaCl, 0.4 mM EDTA, 37 C; EMSA with about 0.1 nM 32P-DNA and excess …
T3 sequence: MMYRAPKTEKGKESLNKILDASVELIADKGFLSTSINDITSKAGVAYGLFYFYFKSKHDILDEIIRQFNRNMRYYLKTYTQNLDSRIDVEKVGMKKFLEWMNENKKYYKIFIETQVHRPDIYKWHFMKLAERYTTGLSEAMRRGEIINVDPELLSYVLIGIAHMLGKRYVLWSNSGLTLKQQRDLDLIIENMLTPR

[4] = target: T3, FadRSa (Sulfolobus acidocaldarius); assay: DNase I footprinting; details: EMSA/DNase I: 20 mM Tris-HCl pH 8.0, 1 mM MgCl2, 0.1 mM DTT, 12.5% glycerol, 50 mM NaCl, 0.4 mM EDTA, 37 C; EMSA with about 0.1 nM 32P-DNA and excess …
[5] = target: T3, FadRSa (Sulfolobus acidocaldarius); assay: Cu-phenanthroline footprinting; details: EMSA/DNase I: 20 mM Tris-HCl pH 8.0, 1 mM MgCl2, 0.1 mM DTT, 12.5% glycerol, 50 mM NaCl, 0.4 mM EDTA, 37 C; EMSA with about 0.1 nM 32P-DNA and excess …
[6] = target: T3, FadRSa (Sulfolobus acidocaldarius); assay: footprinting; details: EMSA/DNase I: 20 mM Tris-HCl pH 8.0, 1 mM MgCl2, 0.1 mM DTT, 12.5% glycerol, 50 mM NaCl, 0.4 mM EDTA, 37 C; EMSA with about 0.1 nM 32P-DNA and excess …
FadRSa [7] = target: T4, FadRSa (Sulfolobus acidocaldarius, UniProt Q4J9S1 1-196); assay: SEC; 40:1 protein:DNA; complex B2, 179 kDa, two dimers; EMSA/DNase I: 20 mM Tris-HCl pH 8.0, 1 mM MgCl2, 0.1 mM DTT, 12.5% glycerol, 50 mM NaCl, 0.4 mM EDTA, 37 C; EMSA with about 0.1 nM 32P-DNA and excess nonspecific competitor DNA; details: protein: recombinant; (N-terminal pET45b or C-terminal pET24a His tag); chain copies: 2; label: 32P 5' end (EMSA); none (SEC); blunt
T4 sequence: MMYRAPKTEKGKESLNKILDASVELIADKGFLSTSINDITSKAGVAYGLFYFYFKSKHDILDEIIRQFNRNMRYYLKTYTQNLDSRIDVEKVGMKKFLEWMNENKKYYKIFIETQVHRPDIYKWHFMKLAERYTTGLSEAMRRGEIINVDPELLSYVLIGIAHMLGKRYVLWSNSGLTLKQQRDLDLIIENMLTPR

FadRSa [8] = target: T4, FadRSa; assay: X-ray crystallography; 3.29 A; three dimers with two duplexes; EMSA/DNase I: 20 mM Tris-HCl pH 8.0, 1 mM MgCl2, 0.1 mM DTT, 12.5% glycerol, 50 mM NaCl, 0.4 mM EDTA, 37 C; EMSA with about 0.1 nM 32P-DNA and excess nonspecific competitor DNA; details: protein: recombinant; (N-terminal pET45b or C-terminal pET24a His tag); chain copies: 2; blunt
[9] = target: the molecule itself; assay: SEC; free purified FadRSa; apparent molecular weight from a calibrated column (Superdex 200 Increase 10/30 GL, 20 mM Na2HPO4 pH 7.4, 150 mM NaCl)
[10] = target: the molecule itself; assay: native gel or EMSA; dimer with dimer on operator DNA: 45-bp 32P-labelled wildtype or mutated Saci_1123 operator probes; 20 mM Tris-HCl pH 8.0, 1 mM MgCl2, 0.1 mM DTT, 12.5% glycerol, 50 mM NaCl, 0.4 mM EDTA, 37 °C; 6% acrylamide gels
[11] = target: the molecule itself; assay: crystal structure; SeMet FadRSa, SAD, 2.4 Å, space group P21, two molecules per asymmetric unit; acyl-CoA in subunit B
FadRSa [12] = target: T4, FadRSa; assay: EMSA; single complex B; EMSA/DNase I: 20 mM Tris-HCl pH 8.0, 1 mM MgCl2, 0.1 mM DTT, 12.5% glycerol, 50 mM NaCl, 0.4 mM EDTA, 37 C; EMSA with about 0.1 nM 32P-DNA and excess nonspecific competitor DNA; details: protein: recombinant; (N-terminal pET45b or C-terminal pET24a His tag); chain copies: 2; label: 32P 5' end (EMSA); none (SEC); blunt
FadRSa [13] = target: T4, FadRSa; assay: EMSA; two complexes B1 and B2; EMSA/DNase I: 20 mM Tris-HCl pH 8.0, 1 mM MgCl2, 0.1 mM DTT, 12.5% glycerol, 50 mM NaCl, 0.4 mM EDTA, 37 C; EMSA with about 0.1 nM 32P-DNA and excess nonspecific competitor DNA; details: protein: recombinant; (N-terminal pET45b or C-terminal pET24a His tag); chain copies: 2; label: 32P 5' end; blunt

T1 sequence (Q4J9S1 entry or part of it M101A): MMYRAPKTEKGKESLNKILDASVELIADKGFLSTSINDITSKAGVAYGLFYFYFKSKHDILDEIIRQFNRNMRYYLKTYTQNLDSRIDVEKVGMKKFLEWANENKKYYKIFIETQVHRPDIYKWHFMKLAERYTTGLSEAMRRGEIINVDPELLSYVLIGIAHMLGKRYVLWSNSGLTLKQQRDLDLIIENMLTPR

CCCCCCCC/C=C\CCCCCCCC(=O)SCCNC(=O)CCNC(=O)[C@H](O)C(C)(C)COP(=O)(O)OP(=O)(O)OC[C@H]1O[C@@H](n2cnc3c(N)ncnc32)[C@H](O)[C@@H]1OP(=O)(O)O [oleoyl-CoA]
EMSA, ligand response of mutant (fraction of bound DNA) (FadRSa [1]): alanine mutation of the allosterically altered Met101 residue desensitizes the protein to oleoyl-CoA | EMSA, release of FadRSa from operator DNA (FadRSa [2]): addition of acetyl-CoA or hexanoyl-CoA does not affect sensitivity of the protein to oleoyl-CoA

CGCCCTTTAGAGTGTGGAAGAAGTCAGTGGCACAGTTCTCTTCGTTTAAGCTTTTTTGTATCTCTTCATCAAAATTAAACTATTTGTTTTATTCATTATATCTTAATGTATTTGTGTAAATAATCTTCTTTATTCTAATCAATAAAATTATCGGAGAAGTTTATTATCGAGTTTACCTTTTAACTACAATGATAGTCGACTCAAAAATCAAGTAGTAAAGGTGGTGTGATGTATAGGGCTCC (double strand) [Saci_1107 (fadRSa) peak 2 fragment]
binding [3]: binds | binding [4]: binds | binding [5]: binds

CTACTTTCTAATATCACTATATTCACGCCTGGCAGACCCGACCTACTATGTTTAAACTTTTATAAAGTTGACATTATAATCAACTGATTATTTTAAAGGCAGTTCTAATTTTTCAAATAAACATAACACTAATCCTATAGATATAACTAATAAC (double strand) [Saci_1123 peak 4 footprint fragment]
binding [6]: binds

CTTCACTCCAAATCCTATTAGGAAAGCTGACACTGAACCGACCTTTTAACTACAATGATAGTCGACTCAAAAATCAAGTATAATATAGTCGAAATATGCCCTCTTGAATAAAACCATGAAATATAAATGAGTCTATTCTGATCTGATAAAGTTC (double strand) [Saci_1106 peak 1 fragment]
binding [3]: binds | binding [4]: binds

B1: fadRSa operator 45-bp (dsDNA)
DNA 1: ACTACAATGATAGTCGACTCAAAAATCAAGTAGTAAAGGTGGTGT
DNA 2: ACACCACCTTTACTACTTGATTTTTGAGTCGACTATCATTGTAGT
binding result (FadRSa [7]): binds

B2: fadRSa operator 21-mer (dsDNA)
DNA 1: GTCGACTCAAAAATCAAGTAG
DNA 2: CTACTTGATTTTTGAGTCGAC
binding result (FadRSa [8]): binds

B3: FadRSa (TetR-family transcriptional regulator encoded by Saci_1107), recombinant His-tagged (natural protein, Sulfolobus acidocaldarius, UniProt Q4J9S1 1-196, looked up)
chain: MMYRAPKTEKGKESLNKILDASVELIADKGFLSTSINDITSKAGVAYGLFYFYFKSKHDILDEIIRQFNRNMRYYLKTYTQNLDSRIDVEKVGMKKFLEWMNENKKYYKIFIETQVHRPDIYKWHFMKLAERYTTGLSEAMRRGEIINVDPELLSYVLIGIAHMLGKRYVLWSNSGLTLKQQRDLDLIIENMLTPR
notes: FadRSa, TetR-family regulator encoded by Saci_1107 of Sulfolobus acidocaldarius; the fadRSa coding region amplified from genomic DNA; An N-terminally His-tagged (pET45b) and a C-terminally His-tagged (pET24a) construct were both made; also called wildtype FadRSa; source: E. coli Rosetta (DE3), purified (heat treatment 80 °C, His GraviTrap IMAC)
stoichiometry N [9]: 2

B4: FadRSa N37A (natural protein, Sulfolobus acidocaldarius, UniProt Q4J9S1 1-196, looked up)
chain: MMYRAPKTEKGKESLNKILDASVELIADKGFLSTSIADITSKAGVAYGLFYFYFKSKHDILDEIIRQFNRNMRYYLKTYTQNLDSRIDVEKVGMKKFLEWMNENKKYYKIFIETQVHRPDIYKWHFMKLAERYTTGLSEAMRRGEIINVDPELLSYVLIGIAHMLGKRYVLWSNSGLTLKQQRDLDLIIENMLTPR
notes: FadRSa, encoded by Saci_1107 of Sulfolobus acidocaldarius; made by site-directed mutagenesis with pET24axfadRSaNdenull as template; also called N37A mutant FadRSa; source: E. coli Rosetta (DE3), purified (heat treatment 80 °C, His GraviTrap IMAC)
binding result [10]: binds

B5: SeMet FadRSa (selenomethionine-substituted FadRSa) (natural protein, Sulfolobus acidocaldarius, UniProt Q4J9S1 1-196, looked up)
chain: MMYRAPKTEKGKESLNKILDASVELIADKGFLSTSINDITSKAGVAYGLFYFYFKSKHDILDEIIRQFNRNMRYYLKTYTQNLDSRIDVEKVGMKKFLEWMNENKKYYKIFIETQVHRPDIYKWHFMKLAERYTTGLSEAMRRGEIINVDPELLSYVLIGIAHMLGKRYVLWSNSGLTLKQQRDLDLIIENMLTPR
modifications: selenomethionine-substituted
notes: FadRSa, TetR-family regulator encoded by Saci_1107 of Sulfolobus acidocaldarius; the fadRSa coding region in pET45b (BamHI/HindIII); One subunit (B) of the crystallised dimer carried an acyl-CoA, likely derived from E. coli; also called SeMet-substituted FadRSa; SeMet-derivated FadRSa
binding result [11]: binds

B6: Saci_1123 operator 45-bp (dsDNA)
DNA 1: ACTACATAATCAGTTGATTATAATGTCAACTTTATAAAGTGGTGT
DNA 2: ACACCACTTTATAAAGTTGACATTATAATCAACTGATTATGTAGT
binding result (FadRSa [12]): binds

B7: mutated Saci_1123 operator 45-bp (dsDNA)
DNA 1: ACTACATAGTCAGTTGATTCTAATGTCAACTTTATAAAGTGGTGT
DNA 2: ACACCACTTTATAAAGTTGACATTAGAATCAACTGACTATGTAGT
binding result (FadRSa [13]): binds
